# ACC/ACMC = fluorogenic leaving group
# How the values were obtained:
# recombinant hepsin [1] = target: T1, recombinant hepsin (Homo sapiens, UniProt P05981); test: Cleavage of fluorogenic tetrapeptide substrates by recombinant hepsin expressed in insect cells; format: biochemical; design: Hep136 (covering the prodomain and the catalytic domain); amino acids 46-417; honeybee melittin secretion signal (Mel) (N); made in house; host or cells: SP9 (Sf9) insect cells, baculovirus, pFastBac1; details: with and without a histidine tag
# Method: SP9 cells were infected with recombinant virus at a MOI of 5-10 and the activity of hepsin in the supernatant was monitored by the hydrolysis of a fluorogenic peptide, KRLR-ACC. […] To determine the optimal expression time, activity was monitored for 72 hours after infection.
# The activity of hepsin expressed and purified as described above was tested using the following substrates, which were synthesized based on the substrate specificity profile from the positional scanning libraries described above: Acetyl-Pro-Arg-Leu-Arg-ACC/ACMC and Acetyl-Lys-Arg-Leu-Arg-ACC/ACMC.
# Target sequence in this assay (P05981 46-417): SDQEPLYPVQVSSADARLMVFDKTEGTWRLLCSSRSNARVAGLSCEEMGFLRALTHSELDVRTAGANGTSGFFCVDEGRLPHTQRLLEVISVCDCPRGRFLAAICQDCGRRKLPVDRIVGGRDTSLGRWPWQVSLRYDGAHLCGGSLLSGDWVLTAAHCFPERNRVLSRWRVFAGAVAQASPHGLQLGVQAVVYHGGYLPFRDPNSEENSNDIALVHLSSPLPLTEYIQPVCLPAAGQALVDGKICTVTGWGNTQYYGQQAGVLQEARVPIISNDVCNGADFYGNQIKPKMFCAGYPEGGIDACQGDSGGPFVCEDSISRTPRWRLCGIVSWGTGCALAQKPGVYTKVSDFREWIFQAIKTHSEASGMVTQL
# recombinant hepsin [2] = target: T1, recombinant hepsin; test: Activation of pro-uPA by hepsin, monitored with uPA substrate GTAR-acc; format: biochemical; design: made in house; details: 1 nM recombinant hepsin, 100 μM GTAR-acc; FIG. 10 (squares)
# Method: To test whether hepsin is capable of activating pro-uPA (and thereby potentially initiating this proteolytic cascade), uPA was screened through a coumarin-based substrate library and a substrate was designed to monitor uPA proteolytic activity. The substrate designed to monitor uPA activity is Acetyl-Gly-Thr-Ala-Arg-[7-amino-4-carbomoylcoumarin] (GTAR-acc). 2 μM of pro-uPA was incubated with 1 nM of recombinant hepsin and 100 μM of GTAR-acc.
# Target sequence in this assay (P05981 whole entry, the tested form may be a part): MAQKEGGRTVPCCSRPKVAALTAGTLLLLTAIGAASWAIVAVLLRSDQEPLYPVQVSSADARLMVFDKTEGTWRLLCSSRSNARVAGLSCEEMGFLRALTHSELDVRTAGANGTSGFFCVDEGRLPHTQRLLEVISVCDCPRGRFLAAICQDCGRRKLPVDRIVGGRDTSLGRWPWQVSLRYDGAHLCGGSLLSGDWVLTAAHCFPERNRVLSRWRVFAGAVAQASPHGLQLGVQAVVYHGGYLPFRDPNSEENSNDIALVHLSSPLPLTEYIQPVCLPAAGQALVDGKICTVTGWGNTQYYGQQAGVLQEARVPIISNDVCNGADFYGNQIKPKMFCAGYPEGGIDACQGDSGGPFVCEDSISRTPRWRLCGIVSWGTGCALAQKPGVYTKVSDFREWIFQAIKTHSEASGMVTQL
cleavage by recombinant hepsin (recombinant hepsin [1]),cleavage of GTAR-acc by hepsin (recombinant hepsin [2]),Substance
efficiently cleaved,,Acetyl-Pro-Arg-Leu-Arg-ACC/ACMC (Ac-PRLR-{ACC/ACMC}; also: C-terminal ACC/ACMC fluorophore) [N-acetyl tetrapeptide hepsin substrate with C-terminal coumarin fluorophore (ACC or ACMC)]
,only marginally cleaves,Acetyl-Gly-Thr-Ala-Arg-[7-amino-4-carbomoylcoumarin] (Ac-GTAR-{7‑amino‑4‑carbamoylcoumarin}) [GTAR-acc]
efficiently cleaved,,Acetyl-Lys-Arg-Leu-Arg-ACC/ACMC (Ac-KRLR-{ACC/ACMC}; also: C-terminal ACC/ACMC fluorophore) [N-acetyl tetrapeptide hepsin substrate with C-terminal coumarin fluorophore (ACC or ACMC)]
